The values that follow come from paper PMC8042453 (The Journal of Biological Chemistry, 2021).

In experiment [1] the target is T1, Nucleolin construct R1234G (aa 285–710) (human, UniProt P19338 285-710). The experiment in a line: co-IP.
The target of experiment [2] is T1, Nucleolin construct R1234G (aa 285–710). The experiment in a line: flow cytometry on cells.

T1 sequence (P19338 285-710, stated change not applied): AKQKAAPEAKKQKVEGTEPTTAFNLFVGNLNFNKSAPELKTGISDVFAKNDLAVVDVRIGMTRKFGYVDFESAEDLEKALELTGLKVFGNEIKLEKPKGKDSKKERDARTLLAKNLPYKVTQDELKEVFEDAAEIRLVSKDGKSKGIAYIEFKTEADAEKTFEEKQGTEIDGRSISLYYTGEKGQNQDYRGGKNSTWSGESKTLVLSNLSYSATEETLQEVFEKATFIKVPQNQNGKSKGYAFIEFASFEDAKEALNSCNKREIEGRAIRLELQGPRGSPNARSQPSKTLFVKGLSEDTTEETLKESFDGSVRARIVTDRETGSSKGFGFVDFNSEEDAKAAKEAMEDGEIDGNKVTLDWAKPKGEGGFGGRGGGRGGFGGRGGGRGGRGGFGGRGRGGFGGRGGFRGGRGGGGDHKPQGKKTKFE

B1: C1QTNF4 (aa 17–329, full-length) (ligand)
chain: not shown
Turning to B1, the binding result in experiment [1] is listed as “binds”.

B2: GFP-C1QTNF4 (aa 17–329) (ligand)
chain: not shown
In the case of B2, the binding result in experiment [2] is recorded as “binds”.
